What is called stoichiometry N is a count of units in the complex or per binding partner. Usually Km stands for the concentration of substrate that gives half-maximal velocity.

The results in this text go back to article PMC8965080 (Frontiers in Microbiology, 2022).

The target of one data set is T1, Fdh3A (Thermococcus onnurineus, UniProt B6YU84).
T1 construct: gene TON_0539; Catalytic subunit alone; N-terminal 6xHis tag; expressed in T. onnurineus MF02 (parent 156T, fdh3 region deleted); one-step TALON IMAC
T1 sequence (B6YU84 1-680): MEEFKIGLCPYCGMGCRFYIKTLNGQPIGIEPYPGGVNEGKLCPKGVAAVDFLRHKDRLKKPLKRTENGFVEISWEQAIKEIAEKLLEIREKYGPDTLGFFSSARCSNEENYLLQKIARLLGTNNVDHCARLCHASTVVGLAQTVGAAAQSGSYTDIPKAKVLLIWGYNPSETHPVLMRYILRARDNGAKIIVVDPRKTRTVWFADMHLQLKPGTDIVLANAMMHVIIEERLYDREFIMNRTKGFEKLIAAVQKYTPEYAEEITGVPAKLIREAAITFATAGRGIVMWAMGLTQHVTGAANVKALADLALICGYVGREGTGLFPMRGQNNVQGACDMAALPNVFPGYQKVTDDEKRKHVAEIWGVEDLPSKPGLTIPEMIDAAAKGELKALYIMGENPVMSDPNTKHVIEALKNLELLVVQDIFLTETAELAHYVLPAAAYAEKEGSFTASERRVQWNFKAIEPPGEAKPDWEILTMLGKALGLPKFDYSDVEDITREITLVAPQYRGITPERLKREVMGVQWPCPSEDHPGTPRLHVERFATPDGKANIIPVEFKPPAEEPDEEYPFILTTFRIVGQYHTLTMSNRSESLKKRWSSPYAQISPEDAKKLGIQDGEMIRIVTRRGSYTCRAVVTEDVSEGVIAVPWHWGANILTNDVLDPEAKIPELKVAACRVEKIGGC
In words: formate-dependent methyl viologen reduction, absorbance at […] nm. The following applies: 100 mM sodium formate, 2 mM methyl viologen, 0.1 M Tris-HCl pH 8.5, 10% glycerol, 2 mM DTT; anaerobic; turnover only. It is filed as biochemical.

Data set [1] concerns the target Fdh3A, formate dehydrogenase large (catalytic) subunit (TON_0539) of Thermococcus onnurineus NA1, with N-terminal 6X-His tag (Thermococcus onnurineus NA1). As to the kind of experiment: affinity purification with mass spectrometry; lysate of strain MF01 on TALON IMAC resin (N-terminal 6X-His on Fdh3A), eluted with 300 mM imidazole, then SEC on Superose 6 Increase 10/300 in buffer A (0.1 M Tris-HCl pH 8.0, 150 mM NaCl, 19 mM KCl, 10% glycerol); bands of the SDS-PAGE identified by MALDI mass spectrometry; anaerobic chamber.

Data set [2] has the same target.
Substrate in data set [3]: NC(=O)c1ccc[n+]([C@@H]2O[C@H](COP(=O)(O)OP(=O)(O)OC[C@H]3O[C@@H](n4cnc5c(N)ncnc54)[C@H](OP(=O)(O)O)[C@@H]3O)[C@@H](O)[C@H]2O)c1
As to the kind of experiment: purified protein. It is filed as biochemical, Thermococcus onnurineus. The following applies: co-substrate formate (100 mM in the standard assay), 0.1 M Tris-HCl pH 8.5, 10% glycerol, 2 mM DTT, anaerobic, optimum 80 °C (temperature of Km assay not stated), site on Fdh3B (TON_0542) by model.

Substrate in data set [4]: O=CO
In words: purified protein. Particulars: NADP+ as electron acceptor (2 mM in the standard assay), 0.1 M Tris-HCl pH 8.5, 10% glycerol, 2 mM DTT, anaerobic, optimum 80 °C (temperature of Km assay not stated), catalytic site on Fdh3A (TON_0539).

In the case of `O=CO` [formate], the “formate-dependent methyl viologen reduction, absorbance at 578 nm” value on Fdh3A is “The specific activities of formate-dependent methyl viologen reduction of Fdh3 and Fdh3A were similar”. Same read-out and setting: to `C[n+]1ccc(-c2cc[n+](C)cc2)cc1` [methyl viologen] belongs “The specific activities of formate-dependent methyl viologen reduction of Fdh3 and Fdh3A were similar”.

For the molecule “Fdh3B, NAD(P)-binding protein (TON_0542) of Thermococcus onnurineus NA1 (natural protein)”, in data set [1], the stoichiometry N is 1. In data set [2], “ferredoxin Fd0317 (TON_0317) of Thermococcus onnurineus NA1 (from UniProt B6YTB5 1-67) (natural protein)” showed a formate-dependent ferredoxin-reducing activity of Fdh3A alone (purified from strain MF02), based on the same methyl viologen activity of 16.8 mU/U; a formate-dependent ferredoxin-reducing activity of the purified Fdh3 complex (Fdh3A with Fdh3B, Fdh3G1 and Fdh3G2), based on the same methyl viologen activity of 17.9 mU/U.

B1: Fdh3 (Thermococcus onnurineus NA1) (protein)
chain 1: T1 sequence (B6YU84 1-680)
chain 2: MSGMRFAFLCRERPEPTGKKIAVIGAGPAGLAATGYLVCQGHEVHVYDKLPEPGGLMLFGIPEFRIPIYRVREGYEELERVYNVKFFTRTKVYFGNLEGESGDEFVENRVDFKELVEKYDAVLIATGTWKCWIPNIEGAELEGVFPALEYLFRIKSAKLGHMDWGKVTPVEGKKVLVVGAGHTAVDAALESVLLGADKVYLSYRRTIREAPAGAYEINLLQQRGVKWLERTMPVRIIGENGKVRAVELVKTKLSEPDESGRRRPVPIEGSNFQIDVDYVIFAVGQSPTPPFAEEIDIAVDKKGRIVVDNRHMTSREGVFAAGDVVLGPSKVGKAVKDGLYAAEAMHMWLMGR
notes: Tungsten-containing cytoplasmic complex; N-terminal 6xHis tag on TON_0539; overexpressed in T. onnurineus MF01 (fdh1 fdh2 fdh3 deleted), TALON IMAC and SEC; 524 kDa by SEC; TON_0541 not detected
For B1, the Km in the data set “purified protein [3]” turned out to be 0.040 mM; in “purified protein [4]” it was 13.5 mM.
